Data as given in patent EP1986009A1.

Biological target: Recombinant human RAGE/Fc chimera (R&D Systems cat. No. 1145-RG) (human)
Assay: SPR (Biacore), 200 nM protein over immobilized RAGE/Fc, Req or late association response

Chain of Recombinant human RAGE/Fc chimera (R&D Systems cat. No. 1145-RG) (human) (Q15109 23-344, change not shown, form in doubt): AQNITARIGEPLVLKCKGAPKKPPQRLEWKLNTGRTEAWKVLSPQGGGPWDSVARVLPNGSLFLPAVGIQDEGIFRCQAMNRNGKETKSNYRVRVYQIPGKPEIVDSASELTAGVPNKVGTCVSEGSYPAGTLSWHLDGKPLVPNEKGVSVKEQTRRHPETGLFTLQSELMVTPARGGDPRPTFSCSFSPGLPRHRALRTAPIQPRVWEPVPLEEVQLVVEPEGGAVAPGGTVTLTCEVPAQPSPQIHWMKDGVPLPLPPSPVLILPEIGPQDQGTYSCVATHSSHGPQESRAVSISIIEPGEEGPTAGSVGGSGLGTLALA

- fold higher binding than the next group of RAGE binders (AnxII, S100A12, and S100A8/9): > 10 fold
Substance: Recombinant S100A9, expressed as the full-length sequence of native protein in E. coli (ligand)
